In patent US20200368125A1, “FAST-ACTING BIOCIDAL CLEANSING COMPOSITION” (Conopco, Inc., d/b/a UNILEVER, priority 2017, published 2020):

Experiment: Zeta potential measured using Malvern Zetasizer
Type: physicochemical
Conditions: 2 ml sample; alkaline (KOH) aqueous medium
Method: The Zeta Potential was measured using Malvern Zetasizer (2 ml sample). […] The error bar of ±0.2 mV […]. […] Usually Proteins tend to destabilise/degrade in the presence of strong alkalis like KOH but the stability of the complex, so prepared, was confirmed by ^1H NMR. […] Surface charge around protein changes with change with complex.

## sericin
  Zeta Potential: −15±0.2 mV
